Results as given in paper PMC6232179.

Molecular target: His-tagged ER luminal domain of IRE1α (IRE1-NLD-His6-KDEL)
Assay: SPR; IRE1-NLD amine-coupled on a CM5 chip (~1500 RU); COX-2 flowed at 0 to 10000 nM in 10 mM Hepes pH 7.4, 150 mM NaCl, 0.005% P20, 30 µl/min; BIACore T200; triplicate

B1: COX-2 (prostaglandin endoperoxide synthase 2, PTGS2), purified His-tagged protein (enzyme)
chain: ANPCCSHPCQNRGVCMSVGFDQYKCDCTRTGFYGENCSTPEFLTRIKLFLKPTPNTVHYILTHFKGFWNVVNNIPFLRNAIMSYVLTSRSHLIDSPPTYNADYGYKSWEAFSNLSYYTRALPPVPDDCPTPLGVKGKKQLPDSNEIVEKLLLRRKFIPDPQGSNMMFAFFAQHFTHQFFKTDHKRGPAFTNGLGHGVDLNHIYGETLARQRKLRLFKDGKMKYQIIDGEMYPPTVKDTQAEMIYPPQVPEHLRFAVGQEVFGLVPGLMMYATIWLREHNRVCDVLKQEHPEWGDEQLFQTSRLILIGETIKIVIEDYVQHLSGYHFKLKFDPELLFNKQFQYQNRIAAEFNTLYHWHPLLPDTFQIHDQKYNYQQFIYNNSILLEHGITQFVESFTRQIAGRVAGGRNVPPAVQKVSQASIDQSRQMKYQSFNEYRKRFMLKPYESFEELTGEKEMSAELEALYGDIDAVELYPALLVEKPRPDAIFGETMVEVGAPFSLKGLMGNVICSPAYWKPSTFGGEVGFQIINTASIQSLICNNVKGCPFTSFSVPDPELIKTVTINASSSRSGLDDINPTVLLKERSTEL
modifications: red fluorescent tag, covalently labelled (only in the MST of Figure 4B)
B1 showed a Kd of 880 nM.
